Earlier results, collected in article PMC11076503.

Molecular target: Mpro (Severe acute respiratory syndrome coronavirus 2) (UniProt P0DTD1)

With Mpro (from UniProt P0DTD1) as the substance, how does the Kd read?
Its Kd is 7 µM.
